Data from the nanobody polyreactivity screen of Harvey et al. (2022).

Assay: yeast display, Sf9 membrane polyspecificity reagent, FACS + sequencing; frameworks hold sequencing errors
Procedure, shortened: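 A synthetic nanobody library was expressed on Saccharomyces cerevisiae BJ5465 by galactose induction for 36–48 hours. The library was stained for 1 hour at 4 °C with 10% biotinylated, detergent-solubilized Sf9 membrane reagent and enriched with streptavidin microbeads before FACS. Low and high (top ~1%) gates were set on anti-HA fluorescence for expression and streptavidin fluorescence for reagent binding, and each polyreactivity label reflects the gate of origin.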

Row | Sequence | polyreactivity (PSR sort gate)
1 | QVQLVDSGGGLVQAGGSLRLSCAASGFTFWRYVMGWYRQAPGKERELVAAISGRGSRTFYADSVKGRFTISRDNAKNTVYLQMNSLKPEDTAVYYCNAYPGTSGTLYVTPYDYWGQGSQVTVSS | high polyreactivity
2 | QVQLVDSGGGLVQAGGSLRLSCAASGFTITRNVMGWYRQAHGKERELVAAITSGGNTNYADSVKGRFTISRDNAKNTVYLQMNSLKPEDTAVYYCATSYHRRYDYWGQGTQVTVSS | low polyreactivity
3 | QVQLVDSGGGLVQAGGSLRLSCAASGGLFIVNDMGWYIQAPGKEMELVAAITSGGGKNYADSVKGRFTISRDNAKNTVYLQMNSLKPEVTAVYYCARDTYRQIVSNESYGFWGHGTQVTVSS | low polyreactivity
4 | QVQLVDSGGGLVQAGGSLRLSCAASGIIFAYNAMGWYRQAPGKERELVAAITSGTSTHYADSVKGRFTISRDNAKNSVYLHINSLNPEDTAVYYCNADYFFEFDYWGQGTQVTVSS | low polyreactivity
5 | QVQLVDSGGGLVQAGGSLRLSCAASGIIFRTNAMGWYRQAPGKERELVAAIRWSDGSTYYADSVKGRFTISRDNAKNTVYLQMNSLKPEDTAVYYCNAASQYTFDCSFDDWGQGTQVTVSS | low polyreactivity
6 | QVQLVDSGGGLVQAGGSLRLSCAASGISFGVYAMGWYRQAPGKERELVAAISRRGASTYYADSVKGRFTISRDNAKTTVYLQMNILNPEDTAVYYCPAYLARRQYDYWGQGTKVTVSS | high polyreactivity
7 | QVQLVDSGGGLVQAGGSLRLSCAASGITFGYYAMGWYRQAPGKERELVAAISFTGASTYYADSVKGRFTISRDNAKNTVYLQMYSLKPEDTAVYYCAADPYVPYHDFLSGFDYWGQGTQVTVSS | low polyreactivity
8 | QVQLVDSGGGLVQAGGSLRLSCAASGITFWWYAMGWSRPAPGKEREVVAAISQRGGTYYADSVKGRFTISRDKAKNTVFLQMKSLKPDDTAVDSCAAVVYSRYAPYSAQYDDWGQGTQVTVSS | high polyreactivity
9 | QVQLVDSGGGLVQAGGSLRLSCAASGITIPSYTMGWYRQGPGKERELVATIRNGGSTYYADSVKGRFTISRDNAKNTVYLQMNSLIPEDTAVYYCAAVPLWDYIFFYYLLYDYWGQGTQVTVSS | low polyreactivity
10 | QVQLVDSGGGLVQAGGSLRLSCAASGLIFSYNAMGWYRQAPGKERELVATIRRVGSTNYADSVKGRFTISRDNEKNTVYLQMNSLKPEDTAVYYCAARSLRYGRGMYYWGQGTQVTVSS | high polyreactivity
11 | QVQLVDSGGGLVQAGGSLRLSCAASGLSFLVNAMGWYRQAPGKERELVAAIDRDGGITYADSVKGRFTISRDNAKNTVYLQMNSLKPDDTAVSYCAADPSSYGRFTYDYWGQGTQVNVSS | low polyreactivity
12 | QVQLVDSGGGLVQAGGSLRLSCAASGLTFRRYAMAWYRQAPGKERELVAGISRGGSTYYADSVKGRFTISRDNAKNTVYLQMTSLKPEDTAVYYCAAYNRGTYPVQPVPYDMDYWGQGTQVTVSS | low polyreactivity
13 | QVQLVDSGGGLVQAGGSLRLSCAASGLTILPNAMGWSRQAPGNDRELVAAISWGDGNTYYADSVKGRFTISRDNAKNTVYLQMNSLKPEDTAVYYCAADVIKSRTYDYWGQGTQVTVSS | low polyreactivity
14 | QVQLVDSGGGLVQAGGSLRLSCAASGNIFTSYARGWYRQAPGKERELVAAISSGGRTSYADSVKGRFTISRDNAMNTVFLQMNSLKPDYTAVYYCAAYYRRWPREYYYWGQGTQVSVSS | high polyreactivity
15 | QVQLVDSGGGLVQAGGSLRLSCAASGRIFGAYTMGWYRQAPGKEREFVADITSGGSTDYADSVKGRFTISRDNAKNTVSLQMNSLKPEDTAVYYCAAGGWVASLYLYDYWGHGTQVTVSS | low polyreactivity
16 | QVQLVDSGGGLVQAGGSLRLSCAASGRIFGYNAMGWSRQAPGKERELVAAISSGGGTNYADSVKGRFTISRDNAKNTVYLQMNSLKPEDTAVYYCAVRRRRYHTYYRGYDYWGQGTQVTVSS | low polyreactivity
17 | QVQLVDSGGGLVQAGGSLRLSCAASGRIFHCYAMGWYRQAPGKERELVAAIRASGGRTYYADSVKGRFTISRDNAKNTVYLQMNSLKPEDTAVYYCAADSVKYGGDYWGQGTQVTVSS | high polyreactivity
18 | QVQLVDSGGGLVQAGGSLRLSCAASGRIFPYYDMGWYRQAPGKERELVAAITWNGGSTYYADSVKGRFTISRDNAKNTVYLQMNSLKPEDTAVYYWAVEPYYYGEDYWGQGTQVTVSS | low polyreactivity
19 | QVQLVDSGGGLVQAGGSLRLSCAASGRTFAWNAMGWYRQAPGKERELVAVITSGGSTNYADSVKGRFTISRDNAKNTVYLQMNSLKPEDTAVYYCATGDGPSLFDYWGQGTQVTVSS | low polyreactivity
20 | QVQLVDSGGGLVQAGGSLRLSCAASGRTFGRKAMGWYRQAPGERELVAVISRGGSTYYADSVKGRFTISRDNAKNTVYLQMNSLKPEDTAVYYCNADTVYTRTAPYDYCGQGTQVTVSS | low polyreactivity
21 | QVQLVDSGGGLVQAGGSLRLSCAASGRTFIFYAMGWSRQAPGKERELVAAISSGGSTDYADSVKGRFTISRDNAKNTVYLQMNSLKPEDTAVYFCKADTFQYPSTYDYWGQGNQVTVSS | low polyreactivity
22 | QVQLVDSGGGLVQAGGSLRLSCAASGRTFRSNAMGWYRQAPGKERELVAAITGSGGRTYYADSVKGRFTISRDNAKNTVYLQMNSLKPEDTAVYYCAARGRAHWHYDDWGQGTQVTVSS | high polyreactivity

Row | Sequence | polyreactivity (PSR sort gate)
23 | QVQLVDSGGGLVQAGGSLRLSCAASGRTIHYYAMGWYRQAPGKEREVVAVISSGGSTYYADSVKGRFTISRDNAKNTVYLQMNSLKPEDTAVYYCAALSSRTYKTGYYTYDYWGQGTQVTVSS | low polyreactivity
24 | QVQLVDSGGGLVQAGGSLRLSCAASGSIFGSNAMGWYRQAPGKERELVAAITWSDGSTYYADSVKGRFTISRDNAKNTVYLQMNSLKPEDTAVYYCATDYGYSWYDYWGQGTQVTVSS | low polyreactivity
25 | QVQLVDSGGGLVQAGGSLRLSCAASGSIFVSYTMGRYRQAPGKEREFVAAITKSGGSTYYADSVKGRFTISRDNAKNTVYLQMNSLKPEDTAVYYCAADWLHYVYEGYDYWGQGTQVTVSS | low polyreactivity
26 | QVQLVDSGGGLVQAGGSLRLSCAASGSIILLNAMGWYRQAPGKEREMVARIRINGGSTYYADSVKGRFTISRDNAKNTVYLKMNSLKPEDTAVYYCAADDTGPYSNWYDYWGQGTQVTVSS | low polyreactivity
27 | QVQLVDSGGGLVQAGGSLRLSCAASGSILLYYTMGWYRPAPGKERELVATMSSSGGSTYYADSVKGRFTISRDNAKNTVYLQMNSLKPEDTAVYYCNADYIYYGTTYEYWGQGTQVTVSS | low polyreactivity
28 | QVQLVDSGGGLVQAGGSLRLSCAASGSNFVWYAMGWYIQAPGKEREMVAAITWSGGSTYYADSVKGRFTISRDNAKNTVYLPMNSLKPEDSAVYYFNAVSYRYYSKLGSWGQGTQVTLSS | high polyreactivity
29 | QVQLVDSGGGLVQAGGSLRLSCAASGSTFKIYAMGWYRQAPGKERELVARITGRGGSTYYADSVKGRFTISRDNAKNTVYLQMNSLKPEDTAVYYCAAAKRYYSEMYWGQGTQVTVSS | high polyreactivity
30 | QVQLVDSGGGLVQAGGSLRLSCAASGSTFLAYAMGSSRQAPGKQTELVAAITWNSCSSTFYADSVKGRFTISRDNAKNSVYLQMNSLKPEDTAVYYCNADVPSPAYYGDGTPYREDNYWGQGTQVTVSS | low polyreactivity
31 | QVQLVDSGGGLVQAGGSLRLSCAASGSTFSRYAMGWYRQARGKERELVAAITDGGDSTYYADSVKGRFTISRDNAKNTVYLQMNSLKPEDTAGYYCNADRLQYGRTPHYDYWGQGTQVTVSS | low polyreactivity
32 | QVQLVDSGGGLVQAGGSLRLSCAASGSTFSSYAMGWYRQAPGKERELVDVITRGTSTNYADSVKGRFTISRDNAKNTVYLQMNSLKPEDTAVYYCNSRRGSRRFGYCGQGTQVTVSS | high polyreactivity
33 | QVQLVDSGGGLVQAGGSLRLSCAASGSTFSVYAMVWYRQAPGKERELVAAISKRGTSTYYADSLKGRFTISRDYAKNTLYLQKNSLKPEDTAVYYCAAEAYRPSPFYYWGQGTQVTFSS | high polyreactivity
34 | QVQLVDSGGGLVQAGGSLRLSCAASGSTFVYYAMGWYRQAPGKERELVAAISSGGRTYYADSVKGRFTISRDNAKNTVYFQMNSLKPEDTAVYYCATYPRYSKSPGYDSWGQGTQVTVSS | high polyreactivity
35 | QVQLVDSGGGLVQAGGSLRLSCAASGYIFHLYGMGWYRQAPGKERELVARISYRGGSTYYADSVKGRFTISRDNAKNTVYLQMHSLKPEDTAVYYCAKDYYKHYYWGQGTQVTVSS | high polyreactivity
36 | QVQLVDSGGGLVQAGGSLRLSCAASGYIFYFNAMGWYRQAPGKEREMVAAISDRDDSTYYADSVKGRFTISRDNAKNTVYLQMNSLKPEDTAVYYCAADGYTYVDDPYDYWGQGTQVTVSS | low polyreactivity
37 | QVQLVDSGGGLVQAGGSLRLSCAASVQTIYQKAMGWYRPAPGKERELVAAITRSGGSTRYADSVKGRFTISRDNAKNTVYLEMSSLKPEDTSVFYCNARYRIGSWYEFGSWGQGTQVTVSS | high polyreactivity
38 | QVQLVDSGGGLVQAGGSLRLSCAAYGRIFGIYTMGWYRQAPGKERELVAAIRFSGSRTYYADSVKGRFTISRDNAKNTVYLQMNSLKPEDTAVYYCNADWWFYRLRNEYWGQGTQVTVSS | high polyreactivity
39 | QVQLVDSGGGLVQAGGSLRLSCADSGSIFPANVMGWYRQAPGKERELVAAISRGGSTYYADSVKGRFTISRDNAKNTVYLQMNSLKPEDTAVYYCAVAFRGSYRPAYYYWGQGTQVTVSS | high polyreactivity
40 | QVQLVDSGGGLVQAGGSLRLSCASSGIIFGYYAMGWYRPAPGKERELVAGITYRTGSTDYADSVKGRFTISRDNAKNTVYFQMNSLKPEDTAVYFCAATQDKRKYSSCYYYWGQGTQVTVSS | high polyreactivity
41 | QVQLVDSGGGLVQAGGSLRLSCDASGSTFRGTVMGWYRQAPGKERELVAGIYSGGSTYYADSVKGRFTISRDNAKNTVYLQMNSLKPEDTAVYYCAAYRRQHIIYNDWGQGTQVTVSS | high polyreactivity
42 | QVQLVDSGGGLVQAGGSLRLSCPASGFIFAKYAKGWSRQAPGKERELGAAITSGGSTNYADSVTGRFTISRDNAKNTVYLQMHSLKPEDTAVYYCNRGFDWWYRYRHYDYWGQGTQVTVSS | low polyreactivity
43 | QVQLVDSGGGLVQAGGSLRLSCPASGFNFYRNAMGSYRQAPGKERELVAAISGSGGRTYYADSVKGRFTISRDNAKNTVYLQMNSLKPEDTAVYYCATDYAYSPYRYWTRYDYWGQGTQVTVSS | high polyreactivity
